B1: Pistol ribozyme (parent)
chain: GGGUCGUUGUUCCAUAAUCGCGUGGAUAUGGCACGCAAGUUUCUACCGGGCACCGUAAAUGUCCGACUGGAGCCGUUCGGGCGGCUAUAAACAGACCUCAGGCCCGAAGCGUGGCGGCACCUGCCGCCGGUGGUAAAAAAGAUCGGAAGAGCACACGUCU

Variants of: B1
Experiment: aptazyme ON/OFF ratio, guanine; higher = stronger switching; co-transcriptional cleavage with and without guanine

Variant	aptazyme ON/OFF ratio
G9C U10C U11G C12A	1.03
U7G G9C U10A C12A C13G	1.09
U8G G9C U10G C12A	1.19
U8G G9C U10A U11G C13A	1.08
U7A U8G G9U U10C C12A C13U	1.35
U7C U8G U11C C12G C13A	1.15
U8C G9U U10G U11A C12G C13A	1.16
U7G G9U U11A C12G C13G	1.23
U7A U8C G9A U11C C12U C13U	1.19
U7G U10C U11G	1.22
U7C U8G G9C U10C U11A C12A C13A	1.08
G9A U10G	3.45
U8G G9A U10G U11C	1.05
U8A G9A U10A U11A C12G C13A	1.29
U8C U10G U11G C12U C13G	1.12
U7G U8G G9A U10G U11A C12U	1.13
U7C U8C G9U U10G U11G	1.21
U8A G9U U10G U11G C12U C13A	1.32
U7C G9A U11G C12U	1.27
U7C U8A G9C U10C U11G C12U C13A	1.05
U8A G9A U10A C12G C13U	1.42

Variant	aptazyme ON/OFF ratio
G9U U10C C12U C13A	1.69
U7G G9A U10A U11A C12G C13G	1.19
U7C G9A C12G C13G	1.2
G9U U11C C12U C13G	1.23
U7G U8A G9C U10A U11G C13A	1.02
U7A U8C G9A U10C U11A C12U	1.25
U7C U8A G9C U11C C12A	1.11
U8G G9C U10G U11A C13A	1.05
U7C U8C G9U U10A U11A C12A C13U	1.1
U8G G9U U10C C12A C13G	1.15
U7C U8G G9A C12A	1.34
U7C U8G C12G C13G	1.08
U7G G9U U10A U11G C12G C13U	1.25
U8C G9U U10C C12A C13A	1.1
U7G G9C U10A U11A C12G	1.7
U7G U8A G9C U10G U11C C12U	1.05
U7G U8A G9C U10C C12U C13A	1.04
U7C U8A U10G C12U	1.34
U7G U10G U11A C12G C13U	1.1
U7G U8C G9C U10C U11G C12U C13G	1.08
U7A U8A G9U U10C U11C C12A C13U	1.05

Variant	aptazyme ON/OFF ratio
U7G U8G U10C U11C C12G C13G	1.2
U10A U11C C12A C13G	1.28
U7G U8G G9C U10A U11C C12U C13G	1.19
U7A U8C G9A U10A U11G C12U C13G	1.24
U8C G9U U11A C13U	1.33
U7G G9C U10C U11C C12U C13A	1.03
U8C G9U U11G C12A C13G	1.18
U8C G9U U10G U11C C12U C13G	1.11
U7G U8C U10G U11C C12U C13A	1.4
U7G G9U U10A U11C C12G C13A	1.22
U7C U8A G9C U10G U11G C13U	1.14
U7C U8A G9C U10C U11A C12G C13U	1.12
U7A U8C G9U U10A U11G C12U C13U	1.21
U7C G9C U10A U11C C12G	1.26
U7C U8C U10G U11G C12A C13U	1.13
U7A U8G G9C U10A U11C C12U C13G	1.59
U7G U10A C12A C13G	1.12
U7A U8A U10C U11A C12G C13A	1.12
U7A U8G G9U U10G C13U	1.23
U7A U8G G9A U10G C12G	1.36
U8C U10G U11C C12G C13G	1.17

Variant	aptazyme ON/OFF ratio
U7C U8C G9C U10C U11C C13G	1.12
U7C U8G G9C U10C U11C C13G	1.03
U8A G9C U10A C12U	1.14
U7A G9U U10C U11C C12U C13G	1.02
U7A G9U U11G C12G C13U	1.14
U7G U8G U10A C12U C13A	1.16
U7G U8G G9U U10G U11A C13G	1.16
U7A U8A G9C U10A C12G C13A	1.15
U7G U8C G9A U11A C12U	1.36
U7C U8G G9U U10A U11C C12A C13U	1.13
U8A U11G C12U C13U	1.11
U7G U8A G9A U11A C13G	1.02
U7C U8C G9C U10C U11A C12U C13G	1.11
U7A U11C C12A	1.39
G9A U10G U11C C13A	1.16
G9C U10C U11A C12U C13U	1.06
U7G U8C G9C U10A U11A C12U C13G	1.09
U7G G9C U10A U11G C12G C13U	1.12
U7C U8C U10A U11C C13U	1.03
U8A G9U U11C C13G	1.02

— the RNAGym collection of RNA variant scans (doi:10.1021/acssynbio.7b00057)
